Changes are numbered by the printed parent chain.
Experiments:
Assay in all cases: flow cytometry, CHO-K1; single column;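 also: CHO-K1 cells transiently transfected with hCD27 alanine mutant constructs, anti-hCD27 antibody binding measured by flow cytometry, 30 min at 4 °C, wild-type hCD27 binding taken as 100%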
[1] = target: T1, P8A
T1 construct: also called hCD27 P8A
T1 receptor: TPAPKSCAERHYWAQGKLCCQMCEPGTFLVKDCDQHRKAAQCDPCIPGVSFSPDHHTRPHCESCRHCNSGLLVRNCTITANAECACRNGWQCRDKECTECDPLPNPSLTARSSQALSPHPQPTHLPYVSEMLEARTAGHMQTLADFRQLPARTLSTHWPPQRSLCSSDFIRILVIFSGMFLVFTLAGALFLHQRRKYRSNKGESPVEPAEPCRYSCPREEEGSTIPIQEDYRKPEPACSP
Description: (§1) The ability of several anti-hCD27 antibodies to bind to a series of hCD27 alanine mutants was determined using CHO-K1 cells, transiently transfected pCI-neo empty vector, pCI-neo.hCD27 and several pCI-neo.CD27Ala mutant constructs.
(§2) Detached cells were transferred to 96 wells round-bottomed well plates at approximately 1.2×10⁵ cells/well. After spinning down the cells, discarding the supernatants and re-suspending the cells in the residual volume, the primary antibodies were added and incubated for 30 minutes at 4° C. Cells were washed three times with DPBS/BSA 1%, followed by centrifugation, discarding of the supernatants and re-suspension in the residual volume. […] After washing once, antibody binding was detected using the HTS plate reader (FACS Canto II) and FlowJo software for data analysis. Debris, dead cells and doublets were excluded from the analysis. Binding was expressed as the geometric mean of the FITC signal, relative to antibody binding to hCD27, which was set at 100%.

[2] = target: T2, V30A
T2 construct: also called hCD27 V30A
T2 receptor: T1 receptor with A8P, V30A
Description: as §1, §2

[3] = target: T3, E9A
T3 construct: also called hCD27 E9A
T3 receptor: T1 receptor with A8P, E9A
Description: as §1, §2

[4] = target: T4, R87A
T4 construct: also called hCD27 R87A
T4 receptor: T1 receptor with A8P, R87A
Description: as §1, §2

[5] = target: T5, Q91A
T5 construct: also called hCD27 Q91A
T5 receptor: T1 receptor with A8P, Q91A
Description: as §1, §2

[6] = target: T6, D43A
T6 construct: also called hCD27 D43A
T6 receptor: T1 receptor with A8P, D43A
Description: as §1, §2

[7] = target: T7, H60A
T7 construct: also called hCD27 H60A
T7 receptor: T1 receptor with A8P, H60A
Description: as §1, §2

[8] = target: T8, R10A
T8 construct: also called hCD27 R10A
T8 receptor: T1 receptor with A8P, R10A
Description: as §1, §2

[9] = target: T9, G16A
T9 construct: also called hCD27 G16A
T9 receptor: T1 receptor with A8P, G16A
Description: as §1, §2

[10] = target: T10, R37A
T10 construct: also called hCD27 R37A
T10 receptor: T1 receptor with A8P, R37A
Description: as §1, §2

B1: hCD27.15-6B (humanized hCD27.15, human IgG4, Clone 6B) (antibody, V domains shown)
VH: QVQLVQSGAEVKKPGASVKVSCKASGFIIKATYMHWVRQAPGQRLEWMGRIDPANGETKYDPKFQVRVTITADTSASTAYMELSSLRSEDTAVYYCARYAWYFDVWGQGTLVTVSS
VL: DIQMTQSPSSLSASVGDRVTITCRASENIYSFLAWYQQKPGKAPKLLIYHAKTLAEGVTSRFSGSGSGTDFTLTISSLQPEDSATYYCQHYYGSPLTFGQGTRLEIKR
notes: humanized version of hCD27.15 from WO2012/004367 with identical CDR regions; also called hCD27.15 (humanized 6B); hCD27.15 6B humanized antibody
For B1, the “% of WT hCD27 binding (geo mean FITC)” value [1] was 63%, the “% of WT hCD27 binding (geo mean FITC)” value [2] was 82.6% and the “% of WT hCD27 binding (geo mean FITC)” value [3] was 58.5%. For the same binder, the “% of WT hCD27 binding (geo mean FITC)” value [4] was 114%, the “% of WT hCD27 binding (geo mean FITC)” value [5] was 136% and the “% of WT hCD27 binding (geo mean FITC)” value [6] was 31%. For the same binder, the “% of WT hCD27 binding (geo mean FITC)” value [7] was 82.6%, the “% of WT hCD27 binding (geo mean FITC)” value [8] was 58.9% and the “% of WT hCD27 binding (geo mean FITC)” value [9] was 141%. The “% of WT hCD27 binding (geo mean FITC)” value [10] was 106%.
